According to publication PMC6954390, “Negative cooperativity between Gemin2 and RNA provides insights into RNA selection and the SMN complex's release in snRNP assembly”:
Positions count from the first letter of the chain named.

How the values were obtained:
SmD1s (Sm …) [1] = target: T1, SmD1s (Sm fold);SmD2;SmF;SmE;SmG;Gemin2ΔN39;SMNGe2BD (human;human;human;human;human;human;huma …, UniProt P62314;P62316;P62306;P62304;P62308;O14893;Q16637 …, del83-119|||||del1-39|); test: GFC; 7SΔN; EMSA: 20 mM Tris-HCl pH 8.0, 250 mM NaCl, 2 mM MgCl2, 1 mM EDTA, 1 mM DTT, 37 C 40 min, RNA 50 pM and complex 2.5-10 pM as printed; GFC assembly assay conditions not in the material; details: protein: recombinant;recombinant;recombinant;recombinant;recombinant;recombinant;recombinant; copies: 1;1;1;1;1;1;1; single-stranded
SmD1;SmD2;SmF;SmE;SmG [2] = target: T2, SmD1;SmD2;SmF;SmE;SmG (human;human;human;human;human, UniProt P62314;P62316;P62306;P62304;P62308 1-119;1-118;1-86;1-92;1-76, ||||); test: GFC/SDS-PAGE; 5Sm without Gemin2; EMSA: 20 mM Tris-HCl pH 8.0, 250 mM NaCl, 2 mM MgCl2, 1 mM EDTA, 1 mM DTT, 37 C 40 min, RNA 50 pM and complex 2.5-10 pM as printed; GFC assembly assay conditions not in the material; details: protein: recombinant;recombinant;recombinant;recombinant;recombinant; copies: 1;1;1;1;1
SmD1s (Sm …) [3] = target: T1, SmD1s (Sm …); test: GFC/SDS-PAGE; 7SΔN; EMSA: 20 mM Tris-HCl pH 8.0, 250 mM NaCl, 2 mM MgCl2, 1 mM EDTA, 1 mM DTT, 37 C 40 min, RNA 50 pM and complex 2.5-10 pM as printed; GFC assembly assay conditions not in the material; details: protein: recombinant;recombinant;recombinant;recombinant;recombinant;recombinant;recombinant, copies: 1;1;1;1;1;1;1
SmD1;SmD2;SmF;SmE;SmG [4] = target: T2, SmD1;SmD2;SmF;SmE;SmG; test: GFC; 5Sm without Gemin2; EMSA: 20 mM Tris-HCl pH 8.0, 250 mM NaCl, 2 mM MgCl2, 1 mM EDTA, 1 mM DTT, 37 C 40 min, RNA 50 pM and complex 2.5-10 pM as printed; GFC assembly assay conditions not in the material; details: protein: recombinant;recombinant;recombinant;recombinant;recombinant, copies: 1;1;1;1;1
SmD1s (Sm …) [5] = target: T1, SmD1s (Sm …); test: EMSA; 7SΔN; Sm subcore formed; EMSA: 20 mM Tris-HCl pH 8.0, 250 mM NaCl, 2 mM MgCl2, 1 mM EDTA, 1 mM DTT, 37 C 40 min, RNA 50 pM and complex 2.5-10 pM as printed; GFC assembly assay conditions not in the material; details: protein: recombinant;recombinant;recombinant;recombinant;recombinant;recombinant;recombinant; copies: 1;1;1;1;1;1;1; 5' and 3' stem-loops flank the Sm site
[6] = target: T3, SmD1s (Sm fold);SmD2;SmF;SmE;SmG;SmD3 (Sm fold);SmB (Sm fold) (human;human;human;human;human;human;huma …, UniProt P62314;P62316;P62306;P62304;P62308;P62318;P14678 …, del83-119||||||); test: GFC/SDS-PAGE; 7SΔN + SmD3/B input; complete core, Gemin2ΔN39/SMNGe2BD released; EMSA: 20 mM Tris-HCl pH 8.0, 250 mM NaCl, 2 mM MgCl2, 1 mM EDTA, 1 mM DTT, 37 C 40 min, RNA 50 pM and complex 2.5-10 pM as printed; GFC assembly assay conditions not in the material; details: protein: recombinant;recombinant;recombinant;recombinant;recombinant;recombinant;recombinant; copies: 1;1;1;1;1;1;1; stem-loops flank the Sm site
[7] = target: T3, SmD1s (Sm fold);SmD2;SmF;SmE;SmG;SmD3 …; test: GFC/SDS-PAGE; 7SΔN + SmD3/B input; core formation to completion; EMSA: 20 mM Tris-HCl pH 8.0, 250 mM NaCl, 2 mM MgCl2, 1 mM EDTA, 1 mM DTT, 37 C 40 min, RNA 50 pM and complex 2.5-10 pM as printed; GFC assembly assay conditions not in the material; details: protein: recombinant;recombinant;recombinant;recombinant;recombinant;recombinant;recombinant; copies: 1;1;1;1;1;1;1; stem-loops; 3 nt spacer 5' of Sm site
SmD1s (Sm …) [8] = target: T1, SmD1s (Sm …); test: GFC/SDS-PAGE; 7SΔN; Gemin2 starts to be released; EMSA: 20 mM Tris-HCl pH 8.0, 250 mM NaCl, 2 mM MgCl2, 1 mM EDTA, 1 mM DTT, 37 C 40 min, RNA 50 pM and complex 2.5-10 pM as printed; GFC assembly assay conditions not in the material; details: protein: recombinant;recombinant;recombinant;recombinant;recombinant;recombinant;recombinant; copies: 1;1;1;1;1;1;1; 3' stem-loop

Q: Does GGCAAUUUUUGACAGUCUCUACGCUCUGAC (ssRNA) [U4-5'Δ-3'ss] bind (SmD1s (Sm …) [1])?
A: binds

Q: What does the source list for GGGAAUUGAAAACUUUUCCCAAUACCCCAAUUUUUGA (ssRNA) [3'Sm]?
A: binding result (SmD1;SmD2;SmF;SmE;SmG [2]): binds; binding result (SmD1s (Sm …) [3]): no binding

Q: Does GGCAAUUUUUGACAGUCUCUACGGAGACUG (structured_RNA) [U4-5'Δ] bind (SmD1;SmD2;SmF;SmE;SmG [4]; 3' stem-loop)?
A: binds

B1: U4 (structured_RNA)
RNA: GGGAAUUGAAAACUUUUCCCAAUACCCCGCCGUGACGACUUGCAAUAUAGUCGGCACUGGCAAUUUUUGACAGUCUCUACGGAGACUG
Q: How did the binding signal (SmD1s (Sm …) [5]) turn out when B1 was run?
A: ~2 fold vs 7S

B2: U4ΔSm (structured_RNA)
RNA: B1 RNA with U64C, U65C, U66C, U67C, U68C
Q: Does B2 bind (SmD1s (Sm …) [3]; 5' and 3' stem-loops)?
A: no binding

Q: Does AAUUUUUGA (ssRNA) [9nt Sm site] bind (SmD1;SmD2;SmF;SmE;SmG [4]; single-stranded)?
A: binds

B3: flU4 (structured_RNA)
RNA: GGGCAGCUUUGCGCAGUGGCAGUAUCGUAGCCAAUGAGGUCUAUCCGAGGCGCGAUUAUUGCUAAUUGAAAACUUUUCCCAAUACCCCGCCGUGACGACUUGCAAUAUAGUCGGCACUGGCAAUUUUUGACAGUCUCUACGGAGACUG
Q: Does B3 bind [6]?
A: binds

B4: flU4-spacer (structured_RNA)
RNA: B3 RNA with G119C, G120C, C121G
Q: Does B4 bind [7]?
A: binds

B5: U4-3'Δ (structured_RNA)
RNA: GGGAAUUGAAAACUUUUCCCAAUACCCCGCCGUGACGACUUGCAAUAUAGUCGGCACUGGCAAUUUUUGAC
Q: Does B5 bind (SmD1s (Sm …) [3]; 5' stem-loop)?
A: no binding

B6: U4-5'ss (structured_RNA)
RNA: GGGAAUUGAAAACUUUUCCCAAUACCCCAAUUUUUGACAGUCUCUACGGAGACUG
Q: Does B6 bind (SmD1;SmD2;SmF;SmE;SmG [4]; 3' stem-loop)?
A: binds

Q: Does B6 bind (SmD1s (Sm …) [8])?
A: binds
